Source: publication PMC11063955, “A multiplexed time-resolved fluorescence resonance energy transfer ultrahigh-throughput screening assay for targeting the SMAD4–SMAD3–DNA complex” (Journal of Molecular Cell Biology, 2023)

Biological target: T1, His-tagged SMAD4 WT (Mothers against decapentaplegic homolog 4) (UniProt Q13485 1-552)
T1 sequence (looked up): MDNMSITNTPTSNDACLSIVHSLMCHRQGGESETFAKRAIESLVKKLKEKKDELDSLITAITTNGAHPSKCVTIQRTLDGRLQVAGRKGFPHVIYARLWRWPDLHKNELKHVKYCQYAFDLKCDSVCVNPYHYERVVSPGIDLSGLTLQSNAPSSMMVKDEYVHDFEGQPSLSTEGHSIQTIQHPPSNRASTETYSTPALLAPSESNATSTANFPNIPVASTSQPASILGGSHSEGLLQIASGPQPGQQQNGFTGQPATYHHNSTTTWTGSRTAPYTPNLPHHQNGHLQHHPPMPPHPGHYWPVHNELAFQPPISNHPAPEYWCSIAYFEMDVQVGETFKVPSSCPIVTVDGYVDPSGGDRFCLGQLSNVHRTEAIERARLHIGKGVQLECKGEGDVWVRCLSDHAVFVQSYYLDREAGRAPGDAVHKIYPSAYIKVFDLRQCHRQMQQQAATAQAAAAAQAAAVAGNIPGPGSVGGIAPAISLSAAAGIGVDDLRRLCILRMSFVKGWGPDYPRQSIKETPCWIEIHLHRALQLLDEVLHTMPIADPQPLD
Assay: cell-based or functional assay

B1: Flag-tagged SMAD3 WT (natural protein, UniProt P84022 1-425, looked up)
chain: MSSILPFTPPIVKRLLGWKKGEQNGQEEKWCEKAVKSLVKKLKKTGQLDELEKAITTQNVNTKCITIPRSLDGRLQVSHRKGLPHVIYCRLWRWPDLHSHHELRAMELCEFAFNMKKDEVCVNPYHYQRVETPVLPPVLVPRHTEIPAEFPPLDDYSHSIPENTNFPAGIEPQSNIPETPPPGYLSEDGETSDHQMNHSMDAGSPNLSPNPMSPAHNNLDLQPVTYCEPAFWCSISYYELNQRVGETFHASQPSMTVDGFTDPSNSERFCLGLLSNVNRNAAVELTRRHIGRGVRLYYIGGEVFAECLSDSAIFVQSPNCNQRYGWHPATVCKIPPGCNLKIFNNQEFAALLAQSVNQGFEAVYQLTRMCTIRMSFVKGWGAEYRRQTVTSTPCWIELHLNGPLQWLDKVLTQMGSPSIRCSSVS
  SBE4-luciferase reporter activity upon TGFβ (10 ng/ml) stimulation, HEK293T cells with endogenous SMAD4 and SMAD3, fold-of-change: > 3 fold
